From patent publication US10961546B2, “Glyphosate-resistant gene screening method, EPSPS mutant gene and deficient strain and use” (GEVOTO LLC, priority 2016, dated 2021)
Values joined by “and” are separate entries in the source; they are usually repeats but may differ in a detail not shown here. Identical values can stand only once.

What was measured:
[1] = tested on: E. coli (EPSPS gene-and-C-P lyase genes-deleted strain); assay: glyphosate resistance testing of Oryza sativa EPSPS mutant gene: growth of transformed E. coli on culture media containing glyphosate; type: cell-based; parameters: key: saturation index=0, no growth; saturation index=1, minor growth; saturation index=2, growth to half-saturation; saturation index=3, vigorous growth, but still not saturated; saturation index=4, rapid growth, meaning the strains have reached the maximum (saturation) concentration or the growth has reached the limit; conditions: E. coli transformed with the gene
Description: A plurality of the above obtained mutant strains were inoculated on a plurality of screening culture media with different concentrations of glyphosate, respectively (the screening culture media contained different concentrations of glyphosate, and the glyphosate concentrations contained in them were 10 mM, 20 mM, 50 mM, etc., respectively, having a gradient in glyphosate concentrations, and of course, the glyphosate concentration may be set as required), and cultured at 37° C. overnight. The screening culture media were obtained by using M9 as a basal medium, to which certain concentrations of antibiotics, including Specs (Spectinomycin), Gen (Gentamycin) and Amp (Ampicillin), and different concentrations of glyphosate were added. M9 culture medium consists of the following ingredients: 13˜14 g/L of Na2HPO4, 5.7˜6.3 g/L of KH2PO4, 0.9˜1.1 g/L of NaCl, 1.8˜2.2 g/L of NH4Cl, 37˜43 g/L of glucose, 48˜52 g/L of MgSO4.7H2O and 21˜23 g/L of CaCl2.
(§1) For glyphosate resistance testing of Oryza sativa EPSPS mutant gene, E. coli (EPSPS gene-and-C-P lyase genes-deleted strain) respectively transformed with OsEM gene (experimental group) and OsE gene (control group) were inoculated to culture media containing 0 mM, 1 mM, 5 mM, 10 mM, 20 mM, 50 mM and 100 mM glyphosate to see the growth of E. coli (indicated by growth saturation index: saturation index=0, no growth; saturation index=1, minor growth; saturation index=2, growth to half-saturation; saturation index=3, vigorous growth, but still not saturated; saturation index=4, rapid growth, meaning the strains have reached the maximum (saturation) concentration or the growth has reached the limit).

[2] = tested on: E. coli (EPSPS gene-and-C-P lyase genes-deleted strain); assay: glyphosate resistance testing of Glycine max EPSPS mutant gene: growth of transformed E. coli on culture media containing glyphosate; type: cell-based; parameters: key: saturation index=0, no growth; saturation index=1, minor growth; saturation index=2, growth to half-saturation; saturation index=3, vigorous growth, but still not saturated; saturation index=4, rapid growth, meaning the strains have reached the maximum (saturation) concentration or the growth has reached the limit; conditions: E. coli transformed with the gene
Description: as §1
For glyphosate resistance testing of Glycine max EPSPS mutant gene, E. coli (EPSPS gene-and-C-P lyase genes-deleted strain) respectively transformed with GmEM gene (experimental group) and GmE gene (control group) were inoculated to culture media containing 0 mM, 1 mM, 5 mM, 10 mM, 20 mM, 50 mM and 100 mM glyphosate to see the growth of E. coli.

[3] = culture medium with 0 mM glyphosate
[4] = culture medium with 1 mM glyphosate
[5] = culture medium with 5 mM glyphosate
[6] = culture medium with 10 mM glyphosate
[7] = culture medium with 20 mM glyphosate
[8] = culture medium with 50 mM glyphosate
[9] = culture medium with 100 mM glyphosate

Row | Molecule | Growth saturation index [1, 3] | Growth saturation index [1, 4] | Growth saturation index [1, 5] | Growth saturation index [1, 6] | Growth saturation index [1, 7] | Growth saturation index [1, 8] | Growth saturation index [1, 9] | Growth saturation index [2, 3] | Growth saturation index [2, 4] | Growth saturation index [2, 5] | Growth saturation index [2, 6] | Growth saturation index [2, 7] | Growth saturation index [2, 8] | Growth saturation index [2, 9]
1 | OsE: wild type Oryza sativa EPSPS gene, SEQ ID NO.1; control group (nucleic acid, listed as Oryza sativa) DNA: ATGGCGTCCAACGCCGCGGCTGCGGCGGCGAAGGCGGAGGAGATCGTGCTCCAGCCCATCAGGGAGATCTCCGGGGCGGTTCAGCTGCCAGGGTCCAAGTCGCTCTCCAACAGGATCCTCCTCCTCTCCGCCCTCTCCGAGGGCACAACAGTGGTGGACAACTTGCTGAACAGTGAGGATGTTCACTACATGCTTGAGGCCCTGAAAGCCCTCGGGCTCTCTGTGGAAGCAGATAAAGTTGCAAAAAGAGCTGTAGTCGTTGGCTGTGGTGGCAAGTTTCCTGTTGAGAAGGATGCGAAAGAGGAAGTGCAACTCTTCTTGGGGAACGCTGCGACTGCAATGCGACTCTTGACAGCAGCCGTGACTGCTGCTGGTGGAAATGCAACTTATGTGCTTGATGGAGTGCCACGAATGAGGGAGAGACCGATTGGTGACTTGGTTGTCGGGTTGAAACAACTTGGTGCGGATGTCGACTGTTTCCTTGGCACTGAATGCCCACCTGTTCGTGTCAAGGGAATTGGAGGACTTCCTGGTGGCAAGGTTAAGCTCTCTGGTTCCATCAGCAGTCAGTACTTGAGTGCCTTGCTGATGGCTGCTCCTTTGGCCCTTGGGGATGTGGAGATCGAAATCATTGACAAACTAATCTCCATTCCTTACGTTGAAATGACATTGAGATTGATGGAGCGTTTTGGTGTGAAGGCAGAGCATTCTGATAGTTGGGACAGATTCTATATTAAGGGAGGGCAGAAGTACAAATCTCCTGGAAATGCCTATGTTGAAGGTGATGCCTCAAGCGCGAGCTATTTCTTGGCTGGTGCTGCAATCACTGGAGGCACTGTGACAGTTCAAGGTTGTGGTACGACCAGTTTGCAGGGTGATGTCAAATTTGCTGAGGTACTTGAGATGATGGGAGCAAAGGTTACATGGACTGACACCAGTGTAACCGTAACTGGTCCACCACGTGAGCCTTATGGGAAGAAACACCTGAAAGCTGTTGATGTCAACATGAACAAAATGCCTGATGTTGCCATGACCCTTGCCGTTGTTGCACTCTTCGCTGATGGTCCAACTGCTATCAGAGATGTGGCTTCCTGGAGAGTAAAGGAAACCGAAAGGATGGTTGCAATTCGGACCGAGCTAACAAAGCTGGGAGCATCGGTTGAAGAAGGTCCTGACTACTGCATCATCACCCCACCGGAGAAGCTGAACATCACGGCAATCGACACCTACGATGATCACAGGATGGCCATGGCCTTCTCCCTCGCTGCCTGCGCCGACGTGCCCGTGACGATCAGGGACCCTGGTTGCACCCGCAAGACCTTCCCCAACTACTTCGACGTTCTAAGCACTTTCGTCAGGAACTGA | 4 | 0 | 0 | 0 | 0 | 0 | 0 | – | – | – | – | – | – | –
2 | GmE: wild type Glycine max EPSPS gene, SEQ ID NO.5; control group (nucleic acid, Glycine max, control group) DNA: ATGGATAGCGTGGCGGCGGCGGAAAAACCGAGCACCAGCCCGGAAATTGTGCTGGAACCGATTAAAGATTTTAGCGGCACCATTACCCTGCCGGGCAGCAAAAGCCTGAGCAACCGCATTCTGCTGCTGGCGGCGCTGAGCGAAGGCACCACCGTGGTGGATAACCTGCTGTATAGCGAAGATATTCATTATATGCTGGGCGCGCTGCGCACCCTGGGCCTGCGCGTGGAAGATGATAAAACCACCAAACAGGCGATTGTGGAAGGCTGCGGCGGCCTGTTTCCGACCAGCAAAGAAAGCAAAGATGAAATTAACCTGTTTCTGGGCAACGCGGCGACCGCGATGCGCAGCCTGACCGCGGCGGTGGTGGCGGCGGGCGGCAACGCGAGCTATGTGCTGGATGGCGTGCCGCGCATGCGCGAACGCCCGATTGGCGATCTGGTGGCGGGCCTGAAACAGCTGGGCGCGGATGTGGATTGCTTTCTGGGCACCAACTGCCCGCCGGTGCGCGTGAACGGCAAAGGCGGCCTGCCGGGCGGCAAAGTGAAACTGAGCGGCAGCGTGAGCAGCCAGTATCTGACCGCGCTGCTGATGGCGGCGCCGCTGGCGCTGGGCGATGTGGAAATTGAAATTGTGGATAAACTGATTAGCGTGCCGTATGTGGAAATGACCCTGAAACTGATGGAACGCTTTGGCGTGAGCGTGGAACATAGCGGCAACTGGGATCGCTTTCTGGTGCATGGCGGCCAGAAATATAAAAGCCCGGGCAACGCGTTTGTGGAAGGCGATGCGAGCAGCGCGAGCTATCTGCTGGCGGGCGCGGCGATTACCGGCGGCACCATTACCGTGAACGGCTGCGGCACCAGCAGCCTGCAGGGCGATGTGAAATTTGCGGAAGTGCTGGAAAAAATGGGCGCGAAAGTGACCTGGAGCGAAAACAGCGTGACCGTGAGCGGCCCGCCGCGCGATTTTAGCGGCCGCAAAGTGCTGCGCGGCATTGATGTGAACATGAACAAAATGCCGGATGTGGCGATGACCCTGGCGGTGGTGGCGCTGTTTGCGAACGGCCCGACCGCGATTCGCGATGTGGCGAGCTGGCGCGTGAAAGAAACCGAACGCATGATTGCGATTTGCACCGAACTGCGCAAACTGGGCGCGACCGTGGAAGAAGGCCCGGATTATTGCGTGATTACCCCGCCGGAAAAACTGAACGTGACCGCGATTGATACCTATGATGATCATCGCATGGCGATGGCGTTTAGCCTGGCGGCGTGCGGCGATGTGCCGGTGACCATTAAAGATCCGGGCTGCACCCGCAAAACCTTTCCGGATTATTTTGAAGTGCTGGAACGCCTGACCAAACATTAA | – | – | – | – | – | – | – | 4 | cannot grow normally and 0 | cannot grow normally and 0 | cannot grow normally and 0 | cannot grow normally and 0 | cannot grow normally and 0 | 0
